# PMC6026317 (2018)
# Ends that are not written are not given here.
# B1: 21C25 (C-terminal 25-residue peptide of FGF21) (peptide)
# peptide: PPDVGSSDPLSMVGPSQGRSPSYAS-NH2
# B2: 21C25 R175A (peptide)
# chain: PPDVGSSDPLSMVGPSQGASPSYAS-NH2
# B3: 21C25 S176A (peptide)
# chain: PPDVGSSDPLSMVGPSQGRAPSYAS-NH2
# B4: 21C25 S181A (peptide)
# chain: PPDVGSSDPLSMVGPSQGRSPSYAA-NH2
# B5: 21C25 Q173A (peptide)
# chain: PPDVGSSDPLSMVGPSAGRSPSYAS-NH2
# B6: 21C25 G170A (peptide)
# chain: PPDVGSSDPLSMVAPSQGRSPSYAS-NH2
# B7: 21C25 V160A (peptide)
# chain: PPDAGSSDPLSMVGPSQGRSPSYAS-NH2
# B8: 21C25 S172A (peptide)
# chain: PPDVGSSDPLSMVGPAQGRSPSYAS-NH2
# B9: 21C25 V169A (peptide)
# chain: PPDVGSSDPLSMAGPSQGRSPSYAS-NH2
# B10: 21C25 G161A (peptide)
# chain: PPDVASSDPLSMVGPSQGRSPSYAS-NH2
# B11: 21C25 S167A (peptide)
# chain: PPDVGSSDPLAMVGPSQGRSPSYAS-NH2
# B12: 21C25 P157A (peptide)
# chain: APDVGSSDPLSMVGPSQGRSPSYAS-NH2
# B13: 21C25 P171A (peptide)
# chain: PPDVGSSDPLSMVGASQGRSPSYAS-NH2
# B14: 21C25 D159A (peptide)
# chain: PPAVGSSDPLSMVGPSQGRSPSYAS-NH2
# B15: 21C25 G174A (peptide)
# chain: PPDVGSSDPLSMVGPSQARSPSYAS-NH2
# B16: 21C25 P158A (peptide)
# chain: PADVGSSDPLSMVGPSQGRSPSYAS-NH2
# B17: 21C25 P177A (peptide)
# chain: PPDVGSSDPLSMVGPSQGRSASYAS-NH2
# B18: 21C25 Y179A (peptide)
# chain: PPDVGSSDPLSMVGPSQGRSPSAAS-NH2
# B19: 21C25 S162A (peptide)
# chain: PPDVGASDPLSMVGPSQGRSPSYAS-NH2
# B20: 21C25 S178A (peptide)
# chain: PPDVGSSDPLSMVGPSQGRSPAYAS-NH2
# B21: 21C25 S163A (peptide)
# chain: PPDVGSADPLSMVGPSQGRSPSYAS-NH2
# Target: T1, Soluble human FGFR1c/KLB receptor complex (FGFR1c ectodomain-Fc with soluble KLB) (human, UniProt P11362 22-376; Q86Z14 1-996)
# Test: AlphaScreen competition with biotinylated FGF21
# T1 sequence (P11362 22-376, chain 1 of 2): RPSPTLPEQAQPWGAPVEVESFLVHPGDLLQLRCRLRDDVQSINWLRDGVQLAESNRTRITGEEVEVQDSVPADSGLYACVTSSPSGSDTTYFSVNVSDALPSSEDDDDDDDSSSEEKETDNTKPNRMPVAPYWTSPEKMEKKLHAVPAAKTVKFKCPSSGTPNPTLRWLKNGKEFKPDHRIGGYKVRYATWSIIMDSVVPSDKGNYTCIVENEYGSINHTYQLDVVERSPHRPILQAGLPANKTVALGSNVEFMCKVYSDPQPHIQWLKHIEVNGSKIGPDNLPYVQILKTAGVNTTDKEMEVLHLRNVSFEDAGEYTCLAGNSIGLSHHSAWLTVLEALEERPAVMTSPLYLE
# T1 sequence (Q86Z14 53-996, chain 2 of 2): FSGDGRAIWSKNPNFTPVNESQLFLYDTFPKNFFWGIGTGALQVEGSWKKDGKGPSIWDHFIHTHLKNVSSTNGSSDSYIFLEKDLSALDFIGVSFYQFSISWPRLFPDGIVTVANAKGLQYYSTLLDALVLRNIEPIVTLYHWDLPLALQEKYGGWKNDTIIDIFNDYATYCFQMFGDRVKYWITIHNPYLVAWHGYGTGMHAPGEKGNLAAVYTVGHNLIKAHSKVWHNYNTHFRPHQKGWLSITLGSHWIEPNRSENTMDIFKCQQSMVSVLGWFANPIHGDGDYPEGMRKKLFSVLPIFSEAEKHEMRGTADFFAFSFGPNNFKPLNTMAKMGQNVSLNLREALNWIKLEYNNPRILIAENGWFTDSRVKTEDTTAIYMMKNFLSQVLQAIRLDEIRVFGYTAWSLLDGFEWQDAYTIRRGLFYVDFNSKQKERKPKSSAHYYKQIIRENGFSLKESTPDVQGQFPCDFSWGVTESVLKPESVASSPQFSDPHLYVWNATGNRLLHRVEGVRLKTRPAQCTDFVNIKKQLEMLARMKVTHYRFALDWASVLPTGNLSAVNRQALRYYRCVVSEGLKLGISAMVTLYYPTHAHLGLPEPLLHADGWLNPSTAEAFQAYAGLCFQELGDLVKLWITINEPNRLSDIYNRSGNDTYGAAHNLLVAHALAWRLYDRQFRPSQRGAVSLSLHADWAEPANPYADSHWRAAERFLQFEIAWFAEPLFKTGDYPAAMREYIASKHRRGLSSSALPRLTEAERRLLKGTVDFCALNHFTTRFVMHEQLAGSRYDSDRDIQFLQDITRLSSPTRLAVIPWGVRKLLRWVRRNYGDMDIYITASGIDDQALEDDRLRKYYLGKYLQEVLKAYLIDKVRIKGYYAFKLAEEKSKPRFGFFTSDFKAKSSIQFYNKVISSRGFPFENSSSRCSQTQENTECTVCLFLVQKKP
row,Binder,IC50 [nM]
1,B1,150

# Target: T1, Soluble human FGFR1c/KLB receptor …
# Test: AlphaScreen competition with biotinylated FGF21
# Remark: another data set of the same source
row,Binder,IC50 [nM]
1,B2,50
2,B3,3140
3,B4,50
4,B5,70
5,B6,180
6,B7,3980
7,B8,120
8,B9,3110
9,B10,160
10,B11,200
11,B12,420
12,B13,130
13,B14,1390
14,B15,150
15,B16,890
16,B17,2500
17,B18,2580
18,B19,2130
19,B20,2870
20,B21,190
